For orientation: pKd means the Kd on a negative log10 scale, so that one unit is a factor of ten.

pKd: −log10 of the molar value.

Consider one sequence from article PMC2762042.

The data set deals with hnRNP G-T RRM (Homo sapiens) (UniProt O75526). Nature of the data set: EMSA. The conditions noted are these: EMSA with radio-labelled T7 transcripts and 30 or 100 ng RRM protein; buffer, salt, pH and temperature not given in material. (In EMSA bound probe runs differently from free probe, usually more slowly.)
Chain of hnRNP G-T RRM (Homo sapiens) (O75526 8-86): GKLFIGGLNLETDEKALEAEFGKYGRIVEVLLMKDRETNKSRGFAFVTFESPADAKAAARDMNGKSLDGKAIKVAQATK

Take “AGGUAUUGGGCUUUGGCUGAGGGCUUUUUGUUGUUGUUGUUGUUGUU [ABwt]”: the negative-log Kd (pKd) is 8.77.
